The values below come from publication PMC10989797, “Mechanistic insights into the key marine dimethylsulfoniopropionate synthesis enzyme DsyB/DSYB” (mLife, 2022).

Data set [1] addresses T1, N. denitrificans DsyB (Nisaea denitrificans, UniProt A0A979HMS8).
T1 construct: full length, 337 residues (Met1-Glu337), C-terminal His-tag (pET22b), E. coli BL21(DE3); initiator Met mostly cleaved; monomer 37,215 Da predicted; homodimer in solution
In words: X-ray crystal structure of complex; native MS. The data set is classed as binding.

In data set [2] the target is T1, N. denitrificans DsyB. In words: X-ray crystal structure of complex. The data set is classed as binding. The conditions noted are these: DsyB-SAH-MTHB complex; SAM site in C-domain; 1 mM SAH and 1 mM DL-MTHB.
Data set [3] deals with Nisaea denitrificans DsyB (Nisaea denitrificans DR41_21 (DSM 18348)). In words: native MS; nondenaturing MS of as-isolated DsyB exchanged into 250 mM ammonium acetate, pH 8.0; dimer region also seen with 25 equivalents of SAM.
The target is the same in data set [4]. In words: SEC; gel filtration of DsyB in solution; conalbumin (75,000 Da) and ovalbumin (43,000 Da) as markers.
Substrate in data set [5]: CSCCC(O)C(=O)O
In words: GC of DMS released from product by alkali; nonlinear fit. The data set is classed as biochemical, Nisaea denitrificans. The conditions noted are these: 1 mM SAM, 1.97 µM enzyme activated with heat-killed L. aggregata dsyB- lysate fractions, racemic substrate 0-2 mM, 50 mM Tris-HCl, 100 mM NaCl, pH 8.0, 28 °C.

Substrate in data set [6]: C[S+](CC[C@H](N)C(=O)O)C[C@H]1O[C@@H](n2cnc3c(N)ncnc32)[C@H](O)[C@@H]1O
In words: cells, lysate or membranes named. Conditions: 1 mM DL-MTHB, 0-2 mM SAM, 1.97 µM enzyme activated with heat-killed L. aggregata dsyB- lysate fractions, 50 mM Tris-HCl, 100 mM NaCl, pH 8.0, 28 °C.

For `CSCCC(O)C(=O)O` (racemic) [MTHB], the “X-ray crystal structure of complex; native MS” value on N. denitrificans DsyB [1] (DsyB-SAH-MTHB complex, poor MTHB density, >6 Å from SAH, presumed initial binding site, 1 mM DL-MTHB) was “the MTHB cosubstrate molecule is located between the C‐domain and the N‐domain”. In the case of `Nc1ncnc2c1ncn2[C@@H]1O[C@H](CSCC[C@H](N)C(=O)O)[C@@H](O)[C@H]1O` [SAH], the “X-ray crystal structure of complex” value on N. denitrificans DsyB [2] was “we solved the crystal structures of complexes of DsyB with SAM and with SAH‐MTHB”. With `C[S+](CC[C@H](N)C(=O)O)C[C@H]1O[C@@H](n2cnc3c(N)ncnc32)[C@H](O)[C@@H]1O` (stereo partly shown) [SAM], on N. denitrificans DsyB [1] (DsyB-SAM complex, SAM bound in chains A-C, not D, 1 mM SAM), the “X-ray crystal structure of complex; native MS” value was “three monomers (Chain A, B, and C) of the asymmetric unit contained SAM molecules”. Take Nisaea denitrificans DsyB (enzyme): the stoichiometry N in data set [3] and in data set [4] was 2 each time.

B1: N. denitrificans DsyB (Nisaea denitrificans DSM 18348) (protein)
chain: MTLLTNAEEISDIAFGFMGSKALFAALHHGVFTCLADGPLSVEEMAAATGLHPDRVQTLLTALASLGVVSAVEGRFANSPAAESFLVKGAKYDFGDYLRLQVDRQMYGLLDQIEDAIANNLPDDATSSYADWFSDPEQAKLYSNSQHAGSLGPARGLAKLIDLSGGKKLLDVGGGTGAFAITLCKAFADLAATIVDFPNVAALGKGYVEKAGLSDRIEYVIGDALRTEWPREQDAILMSYLFSGVAGDEHDSLLKRAYDHLVPGGRLLIHDFVVTADRTGPKLAALWQLQHTAFTPEARSLDDEWLAEQLKKTGFTDVKVGPMIPGMTMLAEAVRPE
notes: full length, 337 residues (Met1-Glu337), C-terminal His-tag (pET22b), E. coli BL21(DE3); initiator Met mostly cleaved; monomer 37,215 Da predicted; homodimer in solution
For the molecule B1, the Km is 0.14 ± 0.02 mM in data set [5] and 0.16 ± 0.002 mM in data set [6].
